Test results reported in publication PMC5668364, “Structure and functional dynamics of the mitochondrial Fe/S cluster synthesis complex” (Nature Communications, 2017).
Read-outs that look alike come from different tables or passages of the source.

B1: Chaetomium thermophilum CtIsu1-His6 (natural protein)
chain: MFSKTARAVSSRALASPLWSTAIPVTRPLSCQLAWPQTRQYHEKVLDHYSRPRNVGSLDKTDKSVGEGLVGAPACGDVMRLHIKVDPETKVISDVRFKTFGCGSAIASSSYLTELVRGMTLEQAAQVKNTQIAKELCLPPVKLHCSMLAEDAIKSAINNYYKKNPEARPTNLAGRGNNKLETASQSTQ
B2: E. coli acyl carrier protein (ACP) (natural protein, UniProt P0A6A8 1-78, looked up)
chain: MSTIEERVKKIIGEQLGVKQEEVTNNASFVEDLGADSLDTVELVMALEEEFDTEIPDEEAEKITTVQAAIDYINGHQA
modifications: Ser36-linked phosphopantetheine with attached fatty acyl chain (12 carbons modelled; 14 carbons by mass spectrometry of dissolved crystals)
notes: E. coli acyl carrier protein; the acyl chain length is said to depend on the growth medium; also called E. coli ACP; A of (NIA)2; source: endogenous E. coli protein, co-purified with NFS1-ISD11 expressed in E. coli
B3: Chaetomium thermophilum CtNfs1 (enzyme)
chain: MANLAPSVLRQASRLATRSSSSTSSLFAAAPRRAATLLSRRAAIAPATHAHPSRRASRSYVTDTKADNAQAQTEAAVRLDSQELEKAEKSVPSFEAQNGSTTHVSPMADILKGATRMGEGQRPIYLDMQATTPVDPRVLDAMLPYYVGIFGNPHSRTHAYGWETERAVEKAREHIAALIGADPKEIIFTSGATESNNMSIKGVARFFGRTGKKRHIITSQTEHKCVLDSCRHLQDEGYEVTYLPVNNKGLINLDELRDAIRPDTALVSIMAVNNEIGVIQPIAEIGKICREKKVFFHTDGAQAVGKIPIDVNAMNIDLMSISSHKIYGPKGIGACYVRRRPRVRIEPIISGGGQERGLRSGTLAPALVVGFGEACRIAKEELEYDLKHVKRLSERLLKGVLSIECTHQNGDPENGYPGCVNVSFAYVEGESLLMALNDVALSSGSACTSASLEPSYVLRALGNSDENAHSSIRFGIGRFTTEAEIDYVVKAVQDRVGFLRELSPLWELVQEGVDLNTIEWTQH

Legend:
[1] = molecular target: B3; test: SAXS; complexes of NFS1 with ISCU, FDX2 (reduced with dithionite) and/or frataxin mixed in 1:1, 1:1:1 ratios in buffer S1 in an anaerobic chamber, after size exclusion chromatography; rigid body modelling
[2] = molecular target: human NFS1 of the NFS1-ISD11(-His10) complex for biochemistry and SAXS (human); test: SAXS; (NIA)2 complexes incubated with cysteine (buffer S1 with 5 mM Cys: 35 mM Tris-HCl pH 7.4, 150 mM NaCl), after size exclusion chromatography
[3] = molecular target: T1, human ISD11-His10 (human, UniProt Q9HD34 1-91); test: affinity purification with mass spectrometry; NFS1-ISD11(-His10) purified by Ni-Sepharose and gel filtration from E. coli grown in TB (energy-rich) medium; Orbitrap mass spectrometry of the trypsin-digested purified solution; conditions: partners not purified
T1 construct: human ISD11 (LYRM4); source: E. coli, co-expressed with NFS1, purified (Ni-Sepharose, gel filtration)
T1 sequence (Q9HD34 whole entry): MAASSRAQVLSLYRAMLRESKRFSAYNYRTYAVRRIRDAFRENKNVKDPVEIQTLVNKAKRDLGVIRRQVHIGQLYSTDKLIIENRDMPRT

[4] = molecular target: T2, human ISD11, full length, no tag (human, UniProt Q9HD34 1-91); test: crystal structure; (NIA)2 complex, 2.75 Å, space group R32; crystals from 100 mM MES pH 6.5, 0.3 M ammonium acetate, 20 mM calcium acetate, 20 mM CaCl2, 19% isopropanol, 12 °C; conditions: both partners purified
T2 construct: human ISD11 (LYRM4), full length, plasmid pZM4; also called LYRM4; I of (NIA)2 and (NIAU)2; source: E. coli One Shot BL21 Star (DE3), co-expressed with NFS1, co-purified (Ni-NTA)
T2 sequence (Q9HD34 whole entry): as above

[5] = molecular target: the molecule itself; test: SAXS; (NIA)2 complexes incubated with cysteine (buffer S1 with 5 mM Cys: 35 mM Tris-HCl pH 7.4, 150 mM NaCl), after size exclusion chromatography

“Chaetomium thermophilum CtFdx2 (reduced ferredoxin) (natural protein)” showed a stoichiometry N [1] of 1.

Work on “human NFS1 of the NFS1-ISD11(-His10) complex for biochemistry and SAXS (enzyme)” yielded a stoichiometry N [2] of 2.

With B1 the “stoichiometry N” value ([1]; both partners purified) was 1.

B2: binds [3]; binds [4].

For B3, the “stoichiometry N” value [5] was 2.
